{
  "source": "paper PMC5199234",
  "key": {"[1]": {"target": "T1, U1A N-terminal RRM (native) (UniProt P09012 1-102)", "T1 sequence (P09012 1-102)": "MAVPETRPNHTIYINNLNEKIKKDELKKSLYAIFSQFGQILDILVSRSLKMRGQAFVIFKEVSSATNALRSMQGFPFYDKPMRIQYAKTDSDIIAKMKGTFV", "assay": "SPR"}, "[2]": {"target": "T1, U1A N-terminal RRM (native)", "assay": "SPR", "remark": "listed apart in the source"}},
  "data": [
    {"binder": "AGCUUAUCCAUUGCACUCCGGAUGAGCU (structured_RNA)", "note": "[U1hpII]", "values": [
      {"measurement": "Kd", "setting": "[1]", "value": "~0.04", "unit": "nM"}
    ]},
    {"binder": "GGCAGAUCUGAGCCUGGGAGCUCUCUGCC (structured_RNA)", "note": "[TAR]", "values": [
      {"measurement": "binding result", "setting": "[2]", "value": "no binding"}
    ]}
  ]
}
